Assay: soluble fraction after stress (log2 fold change); higher = more stays soluble; pooled small domains, quantitative proteomics
Conditions: stress: pH 4
In short: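 Pooled custom libraries of small protein domains were stressed at pH 4 and then measured by high-throughput quantitative proteomics. The fold change in the amount of each domain that stays soluble after the acid stress serves as a measure of aggregation propensity. Fold changes are given on a log2 scale, and higher values mean more of the domain stayed soluble.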

Row | Sequence | soluble fraction (log2)
1 | HMIQQFTYAFAKDKGVVVLPGRDVLTLGMRAGADPLVLLEARRALGSSFELEPLDRDTYERTLADVFTADA | -1.41
2 | HMIMNKEIPVVADEFVEKEFGTGAVKLTPAHDPNDYESGERHGLEVVEVFDETGKMNDLVPEYEG | -0.0198
3 | HMLSADLLDKIQRIDSLEQQGKYAQAEKEARALLSDPSITPSERASVQNILSSIARKKAAQAQ | 0.0475
4 | HMTNVDELIGKEAVVVKEIRPYTTGEVKLDGKVWRAMSESKQVYKVDEIVTVLRIEGVTMII | -0.142
5 | HMVEEVDYGTFMRMIEEKNIGKVEVRAGEIVFTDKDEKQIYKTGAMEDATLTQRLYESGAEFSKDV | -0.507
6 | HMGPDALSIGRRVRQVRTARGMTLDELAAAVSRAPSQLSMIETGKREPKLSLLQAIARALGTTIDALLT | 0.126
7 | HMEPELLTTKQVASVMNIGEERARAILLSRGVQPVSLPWGKERKTLRWSRRAVMTVIDTLHAEAQAKAGV | 0.18
8 | HMDYQEVEFEKLGKEILTKILLDINKKATKKTLKILIDGFNYDSYRSFYIAIGKAQISSDSILELLQH | -0.524
9 | HMENTELIELRKKRNLSQSQLAELLDLTRNQIANYESGRRIPDQETKQIIAGFFEMPAEEIFAG | -0.0656
10 | HMQDVKRYLVNSNQLNVRTGPGKEFEISESLNKGDAVTLLHKESNGWWEVITSTGQGYVYSSMLTKDPW | 0.0322
11 | HMPWLIAVTVDGVNLPRFLRRAGEMGLLLTGVRIRGKHLSAFAREDDVPPLRMMAENGGWRFSVGN | -0.302
12 | HMDGYTAVDKAVSDQYYTKENQLYFVSMGNFFSLGAKKIEGADISSFQILTTEYARDLQHLYFNGKV | -0.367
13 | HMITNMIIIMKPNASEEAIEKVKHLIESKGLQAHLSKGDEVTIVGVVGDKTRLHDSNIEISEGVDKIVNVT | -0.0219
14 | HMREVSPEDLALMRRIDAWHLEHPFAGARLLRDLLRPEGFQAGRRHIGTLMARMGIEALYRK | -0.255
15 | HMATAATGIINNNYVNVRSGPATTYNIVGRLDQGSSIEILGSKNDWYQIKTKQLNGWVKNDFINLQK | 0.14
16 | HMSVTMPNLVGLDEQTAVTRINSSNLSYGSTNYVHSDHEAGVVFKQSTPAYTEVDEHTKIYIWVSLGPEE | -0.145
17 | HMLVNNSTIETVIDFANVKFGMELTKDQVSEQLRNLSFSQTLKLINSMKADDNDAFSEIIDL | -1.89
18 | HMGTLNLSQAYREWGMAEIEANRDYYGPVRFDDIAFQMSPAGQQLQARFVASYADRLHDAIEGEL | -1.68
19 | HMRLTIAQLSEKTGVPERTIRYYIDRGLVPSAHGERRGAWYDTVHLEPLLRIQQWREAGLSLEAIADLLR | -1.17
20 | HMGSFISADEALAKALSHAGLDQSAIRELEMDSELDDDVPHYSIDFKSGNLEYEYEISATDGSVLKFEQD | -0.0935
21 | HMDRERFIKLGREIARAAFENVGKKATDKVLNSAAKKLRLEDGDEVLARLGSAEIEARSVVQAVYPDLI | 0.336
22 | HMEDYYKEDYYTEVLKIPKEYIKGFQYYLIEDAEFVNALNAKNKTMTSFLAKKLASDYIEIIHQEQ | -1.44
23 | HMQISDEAALLAIVDRVIADNQGPLANYLGGKQSLLGWFVGQVMRATRGQAIPAVVNRLVGERLAAQREE | -0.278
24 | HMSEYILATNDGEFLRITSYSKEEGGMLVWEKTSSIVSAEHKVIPYSQIINIKDRNGDVVWDKD | -0.0816
25 | HMLPPVFLTIDANENVIVRKDGEPVQTLNKFELGAFARSQAENSAEQPVVLAADKSIKYEVVMEVI | -0.378
26 | HMILPKFNQLLGQMGENIKLARKRRKLTAVQVSERAGIARSTLYLIEKGDASVSLGAYFNVLRVLG | -0.214

Row | Sequence | soluble fraction (log2)
27 | HMRFQGKISDWNDEKGYGFVEPNGGGTRAFVHIKSFTDLPRRPINGDIIIYETTTDEKNRVQANNISFTR | -0.163
28 | HMPIPIESEISRSPGQSIYAFVQQHYGRSGRSPADMRALVGLILRLNRQIRTPLLIPFGLVVVRPT | -0.253
29 | HMREEFIGVLDGKVAIFHGRPERKGPLKEVTAIEVDKLPRQEQADLEKGLVIRTDKEKLQLMEGLAALLD | -0.171
30 | HMTISDTAYQAFLEQLGVGMVVEHKRFGEGVITGMPKGKIRITFEEGTKSFQARALAESGMLK | -0.824
31 | HMQDAVASEKIQLMSEALHARDTGDLLLAKEKVEKLIALAPNDKNIQALLLTINQSIEDKGL | -0.0958
32 | HMNETSRTRALNILGLKATATQEDIKKAYRSLAKEYHPDKLVGVSEGVKKISEEKFREINEAYEYLI | -0.00502
33 | HMDTMQQESMDTKSILATALMELTSRKNFAKITIADITHVSGFNRQTFYYHFRDKYELLSWIY | -0.117
34 | HMETFEKIKELAKKRGKALGQVEEDLGYGRNTLYKIKNSTPNAERIAEIANYFNVSTDYLLGRTDNPTIAK | 0.104
35 | HMNSHLEEGRHGLQIGDPGIVRARIESDPEGETDMPVVVIDGRNISWNEFGRMVATYTGFQFKLEM | -0.58
36 | HMHLLPAREQVAAYLRKAILRQEIREGTILNLADTARQMGVSVTPVREALQLLAAQGLVRLRPNKGAVVMG | 0.158
37 | HMDKGEQILQQALDKLPPKQRQVFEMRYFDEMPYREIATITETSEGALKASYHHAVKKIQQYISHL | -0.0313
38 | HMLAKNDSGLNNHTFNAIRDALLEALADGPAEAKKLTENISFPSDKIITVIRFLADHDDRFSLEDGILSLT | -0.846
39 | HMIAKEDDGTAFLIDGKISSEEEFKTISKDDILEVFVYKETEIAQKKLDSINSINNTYYTSLIEILLKE | -0.854
40 | HMGVIGADIRALRVSRGWTLSDLAEALDRSVGWLSQVERDVSEPALADIRRIAGIFDLPVSFFFSD | -1.64
41 | HMLISAESVKRRLEMIRHLILLGDYEDVTAQVIKLNPAANEYKLTPIIEELNGGKYQEALEKINSYLSKF | -0.127
42 | HMDDTRLELTLLGKIHNDEEINKQSHINVNIKNGVILLTGESPRREITERILTLARTFEHTRQIVNQIAT | -0.515
43 | HMAWAVDVGVVGLFPGKAVLVIDGGAPRTVPVGANVGGVRLLAVDQGSATVEIGGKRQRLAIGQHAH | 0.22
44 | HMNYKLESYLKKVDDQLNFIPVSDKADILSELKNTFYERLLNGQTEEEILDEMESPRELALSYMSES | -1.38
45 | HMAGTELASIKEIQSLVDRSEEALSARNFFWPKDKSESMLLSFRNMFSRLKLTKMDVQIFHGIFKVMEKS | 0.0341
46 | HMHHGALKQALLDETARILAEEGESALSLRRLASNLGVSRTAPYNHFDNKDALLSAVAEEGFRR | -0.0708
47 | HMQYRQRRGLERMELILDAATRVVAEVGYERTTTNAIATRAGISPGSLYQYFSSKEDIASALWERYAE | -0.251
48 | HMQNEIQQLAIDLIARAHKSGASDIHIVDTGTYTRIKFRVLGLLREDSQMEAETGRQMISTIYGILG | -0.19
49 | HMEDWTPERFVGAFVSGGPALRDEILLAATKDLSHAQATRLLKLAEARGLVHRSQPGPSERVRFVVARK | -0.0732
50 | HMAAEIGSGVVDAYDLRLRSQPSTDAETIIYLDNGAKLSVQEDLGDWYKVVSGTYTGYVSAEYVAYTPSPE | -1.7
51 | HMQAKDVEVPDYVGKSFVSIKENNPNDFKFEVKSEYDESKEMGVILDQEPKGGSMKVKSGSTITVTV | 0.0655
52 | HMYSYSFTSSEGSTFEGQLIRVEESQVTILRYADQKEFSIPKSRFIEADQVYFERWAIENPQL | -2.88

Row | Sequence | soluble fraction (log2)
53 | HMGQLIVTIPNFERRPAEQAIQKLEELGLVPEEKQIYHDDIPAGSVIYTDPSKDSQVNAGTKVYVYVSLG | -0.0832
54 | HMAAADLNMRAKLADLGGMSYGELSIWEKTHGMEFAAWEHEWEKLNSGTQADGLKFPKHLPEGFPT | 0.116
55 | HMTPVKAPLPGVVTKINVSVGQQVKKGENVLVLEAMKMENNIAAEADGTVSGIAVKAGDSVLEGAVLLTI | -0.0107
56 | HMGQQTVEPLSRRELEVLSLLAKGLSNQQIADRLVISVRTVKKHVENIHGKLGVQSRTQAVARARELGLV | -0.688
57 | HMESKITTAEAAAILNASPQFVRVAMQRGILNIGIAMQMPNSNKWTYNISPKLLGEYSGKNIEYELERLR | -0.692
58 | HMPVTKSARQSRIGELIAREPVRSQSELAARLADDGIVVSQGTLSKDLLELGAVRVRTSSGELAYALL | -0.258
59 | HMDLEIENYDLREILNLFKLDYNFDNVDLKRAQKIALKTHPDKSNLPKEYFMFFMKAFQIVQQIYYYRY | -1.09
60 | HMNELGSLIKRKREELGLSQEELARILGYKHKSSINKIELGLADVPRTKVPAFAKALGMTPVEFS | 0.063
61 | HMSPIPLPVERAIHKLGSDISLARRRRHISQASLAERMGASLSTVRRMEKGDVRVPIHFFARALHVFG | 0.158
62 | HMDHKSSYWSVKEANLFPELLKQFGSQWSLISDKLGTKSTTMVRNYYQRNAAQLGWKSVVEEADFKRNA | 0.0284
63 | HMNKIENLSQTILNILRKDHSQAFNYKQIAAKLQLDDPSSRNQIVKKLKDLQGKGTIQEIERGKYILTP | ≥ 0.43
64 | HMATVELELKPEELRAGMILTKDLISGTGMMLLNKGVTLDNVKVEAIQRYYQLDPPLHGVFALVHGK | -0.896
65 | HMDDAVSHPDAGHIVTVTKVSADGTAEVMYRGASWRAKTADGSPLTAGSARIVRVDGAALVVEP | 0.116
66 | HMGQQPPVTEIYKNHDGNKDGLLEAGEVTGSRYARQFPRWDVNGDQKVSPQEVIAFRKRFGIAADGTLL | 0.0862
67 | HMKVWYAGINAQRVGPMTLGAMEQQIRYGRVLFSTLIWKSPMPQWVPAGDVPELRRLLDEHMLNQMP | -0.676
68 | HMENRLREVRDEIATRHGILPTVFINDRVLMNIHSKKPKDVSQLWQVDGISDEFIMKYGPEFIAEYKKKAK | -0.59
69 | HMLNPVEKLLLLSQLYIGRLKGSFVVKEKHHKSTILGEVRELSPEEITLKTDEGYRLIRVDDILTIQL | -0.704
70 | HMGVPTEQQSLIGKSGIAATDLRPSGKVEIDGKRYDAVSNYAGFIAKGTPISVVRYETGQIYVE | 0.0721
71 | HMGQYLDAATVAAVYHAYHARNWTQATLAKELKVARPTLSNVLNGREAPSVELAARIRAFLGSPEP | ≥ 0.43
72 | HMGDGRVGVITASIAYEYAKEVFPEGTSFLKLGLTFPLPMDLIRDFASKVEKLYVIEELEPL | -1.72
73 | HMRTDTIINSGGLKINPEEVENEILKSLGDNNFFIDKIKNDKFGEEIILIALKKIKINLLIESLNLI | -0.286
74 | HMELAALKILNSPIGKIAIGTSENGLVKLDILTSGQTRAEFSDLPKAHKLALDAADQLAAYF | 0.113
75 | HMAGHKVDFSELPARSQAFIGKNFPTEMVKNVEMERKDAKDHYTVLLSNGTKVMFDGTSGELTGV | 0.0825
76 | HMKNSKIVIQKRHNHILELLKQNRTMDVTVLAERLGVTGATIRRDLKKLEQEGTIVRSFGKVSFVG | ≥ 0.43
